T1: DLL3 extracellular domain (amino acids 27-466) displayed on yeast (human, UniProt Q9NYJ7 27-466)
T1 construct: also called DLL3 ECD; wild type DLL3 ECD
T1 sequence: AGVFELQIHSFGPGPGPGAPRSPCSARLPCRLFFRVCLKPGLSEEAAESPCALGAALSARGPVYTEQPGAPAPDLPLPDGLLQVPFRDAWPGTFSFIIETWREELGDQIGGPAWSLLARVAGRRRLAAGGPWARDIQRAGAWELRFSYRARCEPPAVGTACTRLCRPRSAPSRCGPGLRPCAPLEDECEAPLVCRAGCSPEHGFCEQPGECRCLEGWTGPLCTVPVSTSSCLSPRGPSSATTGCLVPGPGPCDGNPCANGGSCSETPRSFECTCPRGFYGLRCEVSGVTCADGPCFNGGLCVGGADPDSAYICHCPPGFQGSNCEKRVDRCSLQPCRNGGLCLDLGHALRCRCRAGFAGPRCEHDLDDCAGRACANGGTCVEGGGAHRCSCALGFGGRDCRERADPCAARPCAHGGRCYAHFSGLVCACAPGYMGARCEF

T2: DLL3 on DLL3-expressing HEK293T cells (human, UniProt Q9NYJ7 27-618)
T2 construct: Cells were formalin fixed and paraffin embedded for IHC; also called DLL3-overexpressing HEK293T cell pellets; DLL3-expressing HEK293T FFPE sections
T2 sequence: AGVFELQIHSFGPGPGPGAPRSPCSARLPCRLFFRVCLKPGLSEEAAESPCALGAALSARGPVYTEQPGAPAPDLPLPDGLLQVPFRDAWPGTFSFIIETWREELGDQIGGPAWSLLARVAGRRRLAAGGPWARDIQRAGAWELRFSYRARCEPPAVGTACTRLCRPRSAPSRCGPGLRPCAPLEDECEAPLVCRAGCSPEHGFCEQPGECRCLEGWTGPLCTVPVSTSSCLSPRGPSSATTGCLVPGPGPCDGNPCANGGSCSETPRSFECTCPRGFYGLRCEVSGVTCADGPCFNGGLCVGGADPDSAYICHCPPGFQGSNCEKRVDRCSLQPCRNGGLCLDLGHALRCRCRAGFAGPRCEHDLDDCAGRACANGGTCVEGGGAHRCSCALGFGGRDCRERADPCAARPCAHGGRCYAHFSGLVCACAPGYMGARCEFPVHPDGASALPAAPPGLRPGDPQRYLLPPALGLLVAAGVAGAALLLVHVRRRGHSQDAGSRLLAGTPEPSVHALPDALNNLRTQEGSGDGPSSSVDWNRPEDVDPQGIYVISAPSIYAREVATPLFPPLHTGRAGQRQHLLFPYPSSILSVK

T3: human DLL3-His protein (human, UniProt Q9NYJ7 27-492)
T3 construct: Purified from supernatants of CHO-S cells; also called hDLL3-His; recombinant DLL3-His; not shown: His tag
T3 sequence: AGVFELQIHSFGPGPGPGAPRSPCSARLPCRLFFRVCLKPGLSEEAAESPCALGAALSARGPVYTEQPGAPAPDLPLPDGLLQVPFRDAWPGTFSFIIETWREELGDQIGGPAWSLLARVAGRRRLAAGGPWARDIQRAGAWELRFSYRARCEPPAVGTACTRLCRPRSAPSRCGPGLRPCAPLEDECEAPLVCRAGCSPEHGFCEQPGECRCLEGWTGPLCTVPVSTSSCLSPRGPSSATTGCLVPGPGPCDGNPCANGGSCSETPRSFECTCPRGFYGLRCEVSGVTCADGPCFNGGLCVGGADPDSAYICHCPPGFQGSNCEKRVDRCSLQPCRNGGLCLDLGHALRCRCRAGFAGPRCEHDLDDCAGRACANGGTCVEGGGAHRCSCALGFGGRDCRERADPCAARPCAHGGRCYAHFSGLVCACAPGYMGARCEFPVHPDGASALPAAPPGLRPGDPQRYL


What was measured:
[1] = biological target: T1, DLL3 extracellular domain (amino acids …); assay: fine epitope mapping (phage display peptide library or yeast display of DLL3 ECD mutants)
[2] = biological target: T2, DLL3 on DLL3-expressing HEK293T cells; assay: immunohistochemistry on HEK293T parental vs DLL3-expressing cell pellets
Procedure: (§1) In order to identify an IHC-compatible anti-DLL3 antibody, IHC was performed on HEK293T parental cell pellets or DLL3-expressing HEK293T cell pellets using numerous anti-DLL3 antibodies of the invention. Several murine anti-DLL3 antibodies (including SC16.65) were able to specifically detect DLL3-overexpressing HEK293T cell pellets more effectively than other anti-DLL3 antibodies of the invention that were tested (data not shown). The ability of these antibodies to specifically detect DLL3 was confirmed by a competition experiment in which the relevant anti-DLL3 antibody was mixed with a 5× molar ratio excess of hDLL3-His protein and then incubated with DLL3-expressing HEK293T formalin fixed and paraffin embedded (FFPE) sections.

human DLL3-His protein = biological target: T3, human DLL3-His protein; assay: IHC competition: antibody mixed with a 5x molar ratio excess of hDLL3-His before staining FFPE sections
Procedure: as §1

binding result [1]	binding result [2]	binding result (human DLL3-His protein)	Binder
binds			SC16.23 (antibody, V domains shown, murine hybridoma mAb) VH: QVTLKESGPGILQPSQTLSLTCSFSGFSLSTSNTGIGWIRQPSGTGLEWLAHIWWNDDKYYNPSLKSRLTISKETSNNQVFLKITNVDTADTASYFCVQIGRDYSNYAWYFDVWGAGTTVTVSS VL: QIVLTQSPAIMSASPGEKVTLTCSASSSVSSRYLYWYQQKPGSSPKLWIYSTSNLASGVPARFSGSGSGTSYSLIISSMEAEDAASYFCHQWSNYPLTFGAGTKLELK
binds			SC16.34 (antibody, V domains shown, murine hybridoma mAb) VH: QIQLVQSGPELKRPGETVKISCKASGYTFTNYGMNWVKQAPGKGLKWMGWINTYTGDPTYADDFKGRFAFSLETSASTAYLQINNLKNEDTATYFCARIGGNSPSDYWGQGTSLTVSS VL: SIVMTQTPKFLLVSAGDRVTITCKASQSVSNDVAWYQQKPGQSPKLLIYYASNRYSGVPDRFTGSGYGTDFTFTISTVQAEDLAVYFCQQDYSSPWTFGGGTKLEIK
binds			SC16.56 (antibody, V domains shown, murine hybridoma mAb) VH: QIQLVQSGPELKKPGETVKISCKASGYTFTNYGMNWVKQAPGKGLKWMAWINTYTGEPTYADDFKGRFAFSLETSASTASLQIINLKNEDTATYFCARIGDSSPSDYWGQGTTLTVSS VL: SIVMTQTPKFLLVSAGDRVTITCKASQSVSNDVVWYQQKPGQSPKLLIYYASNRYTGVPDRFAGSGYGTDFSFTISTVQAEDLAVYFCQQDYTSPWTFGGGTKLEIR
	binds	binds	SC16.65 (antibody, V domains shown, murine hybridoma mAb) VH: QVTLKESGPGILQPSQTLSLTCSFSGFSLSTSGMGVGWIRQPSGKGLEWLALIWWDDVKRYNPALKSRLTISKDASSSQVFLKIASVDTADTATYYCARIASYDYDVVYAMDYWGQGTSVSVSS VL: QIVLTQSPALMSASPGEKVTMTCSVTSSVSYMYWYQQKPRSSPKPWIYLTSNLASGVPARFSGSGSGTSYSLTISSVEAEDAATYYCQQWRNNPFTFGSGTKVEIK
